From US12356911B2, “Group of UDP-glycosyltransferase for catalyzing carbohydrate chain elongation and application thereof” (GSYNBIOT (SHANGHAI) CO., LTD, priority 2017, dated 2025) come the findings set out here.

Type in all cases: biochemical
The nature of series [1]: In vitro transglycosylation at C-6, Rg1 as glycosyl acceptor, UDP-xylose as donor. The note with it: crude enzyme (E. coli lysate supernatant); TLC and HPLC, FIG. 7-9.
A short description of series [2]: In vitro transglycosylation at C-3, F2 as glycosyl acceptor, UDP-glucose as donor. Conditions: crude enzyme (E. coli lysate supernatant).
Series [3] in a line: In vitro transglycosylation at C-3, Rh2 as glycosyl acceptor, UDP-glucose as donor. Conditions: crude enzyme (E. coli lysate supernatant); TLC, FIG. 13, FIG. 15. An excerpt:
(§1) Cell lysate of recombinant E. coli with empty vector pET28a was used as a control.

The nature of series [4]: In vitro transglycosylation at C-20, F1 as glycosyl acceptor, UDP-glucose as donor. Conditions: crude enzyme (E. coli lysate supernatant); TLC and HPLC, FIG. 5, FIG. 6.
Series [5] is described as follows: In vitro transglycosylation at C-20, Rd as glycosyl acceptor, UDP-glucose as donor. Conditions: crude enzyme (E. coli lysate supernatant); TLC/HPLC, FIG. 2, 3, 11.
Text: as §1

The nature of series [6]: In vitro transglycosylation at C-20, CK as glycosyl acceptor, UDP-arabinose as donor. Conditions: crude enzyme (E. coli lysate supernatant); TLC, FIG. 17.
Series [7] can be described thus: In vitro transglycosylation at C-20, Rd as glycosyl acceptor, UDP-xylose as donor. Conditions: crude enzyme (E. coli lysate supernatant); TLC and HPLC, FIG. 2, FIG. 4.
Series [8] can be described thus: In vitro transglycosylation at C-20, CK as glycosyl acceptor, UDP-glucose as donor. Conditions: crude enzyme (E. coli lysate supernatant); TLC/HPLC, FIG. 2, 3, 12, 16.
Text: as §1
As shown in FIG. 16: Protopanaxadiol Ginsenoside CK is used as a glycosyl acceptor, and UDP-glucose is used as a glycosyl donor.

B1: GT29-25: Ginseng UDP-glycosyltransferase, 446 amino acids, SEQ ID NO: 30 (protein)
chain: MDNQKGRISIVMLPFLAHGHISPFFELAKHLSKRNCNIFLCSTPINLSSIKNRISDKDSSASIKLVELHLPSSPDLPPHYHTTNGLPSHLMVPLRNAFETAAPTFSEILKTLNPDLLIYDFNPSWAPEIASSHNIPAVCFIIGGAASFSMSLHSFKNPGEKYPFLDFDDNSNITPEPPSADNMKLLLDFMTCFERSCDIILIKSFRELEGKYFDFYSTLSDKTLVPVGPLVQDPMGHNEDPKTEQFINWLDKRAESTVVFVCFGSEYFLSNEELEEVAIGLEISMVNFIWAVRLIEGEKKGVLPEGFVQRVGDRGLVVEGWAPQARILGHSSTGGFVSHCGWSSITESMKFGVPVIAMARHFDQPLNAKLAAEVGVGTEVVRDENGKYKREDIAGVIRKVVVEKSGEVIRRKARELSEKMKEIGEQLIDRAVEELVQICKKKKDEQ
modifications: misc_feature - GT29-25; Panax ginseng
Turning to B1, the “product formation from Rg1 and UDP-xylose (notoginsenoside R1)” value in series [1] was “can catalyze the formation of Notoginsenoside RI”. Also, the “product formation from F2 and UDP-glucose (Rd)” value in series [2] was “can further catalyze the extension of a glucosyl at the C-3 glycosyl of F2 to produce ginsenoside Rd”. In series [3], the “product formation from Rh2 and UDP-glucose (Rg3)” value is “catalyze the production of ginsenoside Rg3”.

B2: GT29-24: Ginseng UDP-glycosyltransferase, 446 amino acids, SEQ ID NO: 28 (protein)
chain: MDNQKGRISIVMLPFLAHGHISPFFELAKHLSKRNCNIFLCSTPINLSSIKNRISDKDSSASIKLVELHLPSSPDLPPHYHTTNGLPSHLMVPLRNAFETAAPTFSEILKTLNPDLLIYDFNPSWAPEIASSHNIPAVCFIIGGAASFSMSLHSFKNPGEKYPFLDFDDNSNITPEPPSADNMKLLLDFMTCFERSCDIILIKSFRELEGKYFDFYSTLSDKTLVPVGPLVQDPMGHNEDPKTEQFINWLDKRAESTVVFVCFGSEYFLSNEELEEVAIGLEISMVNFIWAVRLIEGEKKGVLPEGFVQRVGDRGLVVEGWAPQARILGHSSTGGFVSHCGWSSITESMKFGVPVIAMARHFDQPLNAKLAAEVGVGMEVVRDENGKYKREGIAEVIRKVVVEKSGEVMRRKARELSEKMKEKGEEEIDRAVEELVQICKKKKDAQ
modifications: misc_feature - GT29-24; Panax ginseng
B2: the “product formation from Rg1 and UDP-xylose (notoginsenoside R1)” value in series [1] is “can catalyze the formation of Notoginsenoside RI”. In series [2], the “product formation from F2 and UDP-glucose (Rd)” value is “can further catalyze the extension of a glucosyl at the C-3 glycosyl of F2 to produce ginsenoside Rd”. Moreover, the “product formation from Rh2 and UDP-glucose (Rg3)” value in series [3] is on record as “catalyze the production of ginsenoside Rg3”.

B3: GT29-32: Ginseng UDP-glycosyltransferase, 442 amino acids, SEQ ID NO: 4 (protein)
chain: MDNQEGRISIALLPFLAHGHISPFFELAKQLAKRNCNVFLCSTPINLSSIKNKDSSASIKLVELHLPSSPDLPPHYHTTNGLPSHLMVPLRNAFETAAPTFSEILKTLNPDLLIYDFNPSWAPEIASSHNIPAVYFLTSAAATSSMGLHAFKNSGEKYPFPDFYDNSNITPEPPSADKMKLFHDFVACFKRSCDIILIKSFRELEGKYIDFLSTLSKKTLVPVGPLVQDPMGHDEDPKTGHLINWLDKRAESTVVFVCFGSEYFPSNEELEELAIGLEISMVSFILAVRFPEGEKKGILPEGFVQRVGDRGLVVEGWAPQARILGHSSTGGFVSHCGWSSIMESVKFGVPVIAMARHLDQPLNAKLAAEVGVGMEVMRDENGKYKREAIAEVIRKVVMEKNGEVMRRKARELSEKMKEIGEQLIDRAVEELVQICKKKKDEQ
modifications: misc_feature - GT29-32; Panax ginseng
With B3, the “product formation from F1 and UDP-glucose” value in series [4] is on record as “can catalyze the formation of a new product”. The “product formation from Rd and UDP-glucose (Rb1)” value in series [5] is on record as “can catalyze the formation of Rb1”. The “product formation from CK and UDP-arabinose (Ginsenoside F3)” value in series [6] is listed as “can catalyze the first glycosyl of C-20 of CK to extend an arabinosyl to generate Ginsenoside F3”. Further, in series [7], the “product formation from Rd and UDP-xylose (one product with the mobility of Rb3)” value was “can catalyze Rd to produce three products”. Further, the “product formation from CK and UDP-glucose (Gypenoside LXXV)” value in series [8] is “can catalyze the formation of a new product”.
